Reference: US11110171B2, “PD-1 related cancer therapy” (New York University, priority 2017, dated 2021)

Biological target: T1, SHP2PTP (GST tagged SHP2 catalytic domain) (Homo sapiens, UniProt Q06124)
T1 construct: a fixed amount of purified GST-WT SHP2 catalytic domain (0.2 ug) was incubated with variable concentrations; purchased Abcam 42578
T1 sequence (Q06124 247-517 limits assumed): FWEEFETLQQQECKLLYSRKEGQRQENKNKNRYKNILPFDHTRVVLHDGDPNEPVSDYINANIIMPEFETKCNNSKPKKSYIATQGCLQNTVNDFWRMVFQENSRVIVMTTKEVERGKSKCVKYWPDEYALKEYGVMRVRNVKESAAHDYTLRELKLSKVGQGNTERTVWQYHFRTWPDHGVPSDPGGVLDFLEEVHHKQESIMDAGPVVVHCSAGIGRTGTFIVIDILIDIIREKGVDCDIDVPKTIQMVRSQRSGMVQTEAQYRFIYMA
Assay: Malachite Green phosphatase assay of SHP2 catalytic domain with phosphotyrosyl peptide substrates
Assay type: biochemical
Conditions: for increase of Km of SHP2-mediated dephosphorylation in the presence of SAP: SAP 1 uM or 10 uM
Method: FIG. 4. SAP inhibits SHP2 activity. […] At this time, the cells were harvested, and analyzed by immunoblotting, as indicated. (b) Jurkat T cells, transfected with siRNA for SAP (SAP KD) and non-targeting control (Control), were treated with pervanadate to induce maximal phosphorylation, followed by five serial washes, lysis and diafiltration to remove the drug and to exchange the buffer to a phosphatase-compatible buffer. SHP2^PTP (GST tagged SHP2 catalytic domain) was then added to the cell lysates for one hour, at the indicated concentrations, followed by immunoblotting with anti-phosphotyrosine antibody (4G10). (c) Densitometry values of all the phophotyrosine containing proteins shown at b. All values are relative to the baseline condition (without SHP2^PTP). […] (e-g) Enzymatic activity of SHP2^PTP was measured using a Malachite Green assay, with p60-SRC (e), SLAMF5 Y279 (f), CD3 Y142 (g), CD28 Y172 (h), and CD28 Y190 (i) peptides as substrates. Substrate titrations of SHP2P (dark circles) at baseline (control), or in the presence of SAP 1 uM (white circles) or SAP 10 uM (crossed circles) are shown. Curves are fitted using the Michelis-Menten equation and derived Km values are shown. The data points represent the mean of three measurements. (j) A diagram describing the shielding model. Data are represented as mean±SEM. * or ** represent significant differences between the denoted group and the anti-CD3 treated cells in a, or between SAP deficient cells and control cells in e; * <0.05, ** P<0.01, n=4, unpaired t test.
First, SAP could bind SHP2 and directly block the SHP2 catalytic site, or alternatively, SAP might not bind to SHP2, but rather could bind to its substrates and thereby block the interaction between SHP2 and its enzymatic substrates. […] To test the effect of SAP on SHP2 mediated dephosphorylation events, we measured SHP2-mediated dephosphorylation of p60-SRC Y416 (FIG. 4e), SLAMF5 Y279 (FIG. 4f), and CD3 Y142 (FIG. 4g) phosphotyrosyl peptides by Malachite Green assays. […]
To determine kinetic parameters, a fixed amount of purified GST-WT SHP2 catalytic domain was incubated with variable concentrations of substrates in (GenScript) in PTP assay buffer (Phosphatase assay kit; Upstate 17-313). […] release was quantified by adding Malachite Green (Malachite Green phosphatase detection kit; R&D DY996).
293T cells were transfected with pMSCV-SHP2, pMSCV empty vector, PD1-WT-GFP, PD1-Y223F-GFP or PD1-Y248F-GFP for 48 hours, followed by pervanadate treatment and immunoprecipitation using anti-GFP mAb-Agarose. The anti-GFP mAb-Agarose beads that were used for immunoprecipitation were then used for a pull-down of the SHP2/null transfected cells, and phosphatase activity on the beads was assessed using pNPP (Sigma). […]

B1: SAP: Recombinant human SAP (His tagged), signaling lymphocytic activation molecule-associated protein, purchased from Abcam (protein, UniProt O60880 1-128, looked up)
SH2 domain-containing protein …: MDAVAVYHGKISRETGEKLLLATGLDGSYLLRDSESVPGVYCLCVLYHGYIYTYRVSQTETGSWSAETAPGVHKRYFRKIKNLISAFQKPDQGIVIPLQYPVEKKSSARSTQGTTGIREDPDVCLKAP
modifications: His tag
Vmax of SHP2-mediated dephosphorylation in the presence of SAP (all three phosphotyrosyl peptides (p60-SRC, SLAMF5, CD3)): unaffected
increase of Km of SHP2-mediated dephosphorylation in the presence of SAP (substrate phosphorylated CD3 Y142 peptide): 2-3 fold
increase of Km of SHP2-mediated dephosphorylation in the presence of SAP (substrate phosphorylated SLAMF5 Y279 peptide): 2-3 fold
inhibition of SHP2-mediated dephosphorylation of the tail of CD28 (substrates CD28 Y173 and CD28 Y190 peptides): predominantly inhibited dephosphorylation of CD28 Y173 over CD28 Y190
